Source: IntAct's records for PubMed 25107275

Target: snx9_human SNX9 (UniProt Q9Y5X1)
Sequence (Q9Y5X1 whole entry): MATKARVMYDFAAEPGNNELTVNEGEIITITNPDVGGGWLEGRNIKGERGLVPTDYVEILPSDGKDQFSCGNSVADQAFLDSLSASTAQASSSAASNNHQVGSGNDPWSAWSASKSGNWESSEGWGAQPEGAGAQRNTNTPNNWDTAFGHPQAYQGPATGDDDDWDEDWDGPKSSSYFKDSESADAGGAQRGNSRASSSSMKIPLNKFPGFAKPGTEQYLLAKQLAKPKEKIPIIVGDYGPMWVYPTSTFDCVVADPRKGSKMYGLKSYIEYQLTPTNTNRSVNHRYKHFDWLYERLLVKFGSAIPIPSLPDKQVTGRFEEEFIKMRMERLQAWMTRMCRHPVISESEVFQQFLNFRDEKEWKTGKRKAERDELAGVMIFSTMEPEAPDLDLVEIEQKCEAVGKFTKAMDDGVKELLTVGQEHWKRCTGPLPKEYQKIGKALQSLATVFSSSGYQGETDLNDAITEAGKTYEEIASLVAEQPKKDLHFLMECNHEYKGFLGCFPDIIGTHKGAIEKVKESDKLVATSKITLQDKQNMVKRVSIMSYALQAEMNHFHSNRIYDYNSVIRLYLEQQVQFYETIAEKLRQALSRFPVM

Chain of Inositol polyphosphate 5-phosphatase OCRL (Homo sapiens), Q01968 P177A;P178A;P181A (Q01968 whole entry P177A/P178A/P181A): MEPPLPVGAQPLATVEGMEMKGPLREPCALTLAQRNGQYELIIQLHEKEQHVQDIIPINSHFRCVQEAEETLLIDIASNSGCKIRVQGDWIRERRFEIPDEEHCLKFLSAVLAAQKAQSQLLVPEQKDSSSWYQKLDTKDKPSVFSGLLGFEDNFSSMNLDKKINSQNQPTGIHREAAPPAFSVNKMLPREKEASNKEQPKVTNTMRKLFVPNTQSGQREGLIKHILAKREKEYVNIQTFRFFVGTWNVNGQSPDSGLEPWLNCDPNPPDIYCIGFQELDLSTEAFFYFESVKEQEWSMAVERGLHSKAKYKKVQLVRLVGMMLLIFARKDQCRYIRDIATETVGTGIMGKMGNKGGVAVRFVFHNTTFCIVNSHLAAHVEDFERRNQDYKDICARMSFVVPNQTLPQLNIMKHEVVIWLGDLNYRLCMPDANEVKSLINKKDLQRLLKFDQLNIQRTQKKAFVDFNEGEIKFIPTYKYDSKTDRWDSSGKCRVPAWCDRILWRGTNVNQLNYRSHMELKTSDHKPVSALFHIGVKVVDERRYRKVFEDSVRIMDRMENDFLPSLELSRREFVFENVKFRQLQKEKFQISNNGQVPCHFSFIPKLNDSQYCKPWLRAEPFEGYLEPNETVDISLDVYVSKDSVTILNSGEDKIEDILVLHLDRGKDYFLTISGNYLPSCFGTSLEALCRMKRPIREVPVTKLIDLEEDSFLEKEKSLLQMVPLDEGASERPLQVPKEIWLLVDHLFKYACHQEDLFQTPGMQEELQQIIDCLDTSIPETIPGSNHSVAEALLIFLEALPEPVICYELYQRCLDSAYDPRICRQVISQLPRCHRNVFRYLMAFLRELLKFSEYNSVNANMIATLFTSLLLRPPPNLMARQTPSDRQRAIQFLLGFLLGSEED

With “Inositol polyphosphate 5-phosphatase OCRL (Homo sapiens), Q01968 P177A;P178A;P181A” the “effect of a mutation on the interaction” value was “disrupting interaction”.
